Experimental data published in IntAct's records for PubMed 10984058.

B1: Myosin-2 (Saccharomyces cerevisiae), P19524 (parent)
chain: MSFEVGTRCWYPHKELGWIGAEVIKNEFNDGKYHLELQLEDDEIVSVDTKDLNNDKDQSLPLLRNPPILEATEDLTSLSYLNEPAVLHAIKQRYSQLNIYTYSGIVLIATNPFDRVDQLYTQDMIQAYAGKRRGELEPHLFAIAEEAYRLMKNDKQNQTIVVSGESGAGKTVSAKYIMRYFASVEEENSATVQHQVEMSETEQKILATNPIMEAFGNAKTTRNDNSSRFGKYLEILFDKDTSIIGARIRTYLLERSRLVYQPPIERNYHIFYQLMAGLPAQTKEELHLTDASDYFYMNQGGDTKINGIDDAKEYKITVDALTLVGITKETQHQIFKILAALLHIGNIEIKKTRNDASLSADEPNLKLACELLGIDAYNFAKWVTKKQIITRSEKIVSNLNYSQALVAKDSVAKFIYSALFDWLVENINTVLCNPAVNDQISSFIGVLDIYGFEHFEKNSFEQFCINYANEKLQQEFNQHVFKLEQEEYVKEEIEWSFIEFNDNQPCIDLIENKLGILSLLDEESRLPAGSDESWTQKLYQTLDKSPTNKVFSKPRFGQTKFIVSHYALDVAYDVEGFIEKNRDTVSDGHLEVLKASTNETLINILEGLEKAAKKLEEAKKLELEQAGSKKPGPIRTVNRKPTLGSMFKQSLIELMNTINSTNVHYIRCIKPNADKEAWQFDNLMVLSQLRACGVLETIRISCAGFPSRWTFEEFVLRYYILIPHEQWDLIFKKKETTEEDIISVVKMILDATVKDKSKYQIGNTKIFFKAGMLAYLEKLRSNKMHNSIVMIQKKIRAKYYRKQYLQISQAIKYLQNNIKGFIIRQRVNDEMKVNCATLLQAAYRGHSIRANVFSVLRTITNLQKKIRKELKQRQLKQEHEYNAAVTIQSKVRTFEPRSRFLRTKKDTVVVQSLIRRRAAQRKLKQLKADAKSVNHLKEVSYKLENKVIELTQNLASKVKENKEMTERIKELQVQVEESAKLQETLENMKKEHLIDIDNQKSKDMELQKTIENNLQSTEQTLKDAQLELEDMVKQHDELKEESKKQLEELEQTKKTLVEYQTLNGDLQNEVKSLKEEIARLQTAMSLGTVTTSVLPQTPLKDVMGGGASNFNNMMLENSDLSPNDLNLKSRSTPSSGNNHIDSLSVDRENGVNATQINEELYRLLEDTEILNQEITEGLLKGFEVPDAGVAIQLSKRDVVYPARILIIVLSEMWRFGLTKQSESFLAQVLTTIQKVVTQLKGNDLIPSGVFWLANVRELYSFVVFALNSILTEETFKNGMTDEEYKEYVSLVTELKDDFEALSYNIYNIWLKKLQKQLQKKAINAVVISESLPGFSAGETSGFLNKIFANTEEYTMDDILTFFNSIYWCMKSFHIENEVFHAVVTTLLNYVDAICFNELIMKRNFLSWKRGLQLNYNVTRLEEWCKTHGLTDGTECLQHLIQTAKLLQVRKYTIEDIDILRGICYSLTPAQLQKLISQYQVADYESPIPQEILRYVADIVKKEAALSSSGNDSKGHEHSSSIFITPETGPFTDPFSLIKTRKFDQVEAYIPAWLSLPSTKRIVDLVAQQVVQDGH
partner: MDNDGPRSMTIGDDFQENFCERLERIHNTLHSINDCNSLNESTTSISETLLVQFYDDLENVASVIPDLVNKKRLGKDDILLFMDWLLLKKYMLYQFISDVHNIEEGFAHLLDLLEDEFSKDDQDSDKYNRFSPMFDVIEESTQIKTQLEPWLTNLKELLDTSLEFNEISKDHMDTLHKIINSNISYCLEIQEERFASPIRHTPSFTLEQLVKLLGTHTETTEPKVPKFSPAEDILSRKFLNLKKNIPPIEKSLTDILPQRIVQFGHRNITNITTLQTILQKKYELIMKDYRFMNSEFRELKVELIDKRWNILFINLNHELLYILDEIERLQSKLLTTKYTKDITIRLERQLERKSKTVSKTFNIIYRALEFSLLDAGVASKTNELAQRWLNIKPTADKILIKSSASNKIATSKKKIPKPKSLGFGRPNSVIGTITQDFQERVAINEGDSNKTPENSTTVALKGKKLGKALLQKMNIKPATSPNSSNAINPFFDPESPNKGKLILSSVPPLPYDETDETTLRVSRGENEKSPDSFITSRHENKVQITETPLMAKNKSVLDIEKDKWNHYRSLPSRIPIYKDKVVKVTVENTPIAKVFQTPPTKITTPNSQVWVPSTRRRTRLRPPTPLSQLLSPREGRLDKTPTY

Variants of: B1
Settings: with kar9_yeast KAR9, P32526

Variant | effect of a mutation on the interaction
E1168K;N1254D | disrupting interaction strength
Y1161F;N1171Y;L1413S;I1453V;I1498M | disrupting interaction strength
